Biological target: T1, CRY1 (human (endogenous in HEK293), UniProt Q16526 1-586)
T1 sequence (looked up): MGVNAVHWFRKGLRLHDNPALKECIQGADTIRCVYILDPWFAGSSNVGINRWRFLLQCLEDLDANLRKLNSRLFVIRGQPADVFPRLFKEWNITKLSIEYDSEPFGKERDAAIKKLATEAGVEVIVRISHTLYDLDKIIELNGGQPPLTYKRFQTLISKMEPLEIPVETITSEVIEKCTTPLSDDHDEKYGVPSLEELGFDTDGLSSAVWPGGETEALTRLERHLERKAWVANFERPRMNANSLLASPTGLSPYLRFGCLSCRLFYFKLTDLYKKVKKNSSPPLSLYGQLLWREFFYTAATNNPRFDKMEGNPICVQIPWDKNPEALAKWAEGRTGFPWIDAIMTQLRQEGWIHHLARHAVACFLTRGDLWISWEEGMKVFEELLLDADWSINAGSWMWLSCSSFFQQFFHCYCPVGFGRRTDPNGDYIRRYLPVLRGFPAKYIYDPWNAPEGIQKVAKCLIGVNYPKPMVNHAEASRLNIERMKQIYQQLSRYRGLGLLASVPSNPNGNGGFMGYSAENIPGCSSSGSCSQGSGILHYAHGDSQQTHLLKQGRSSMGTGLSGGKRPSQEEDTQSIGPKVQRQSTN
Assay: co-IP

B1: BMAL1-luciferase fusion protein (natural protein)
chain: not shown
  fold luciferase activity in the precipitate over the IgG control: ~3 fold
